# According to patent publication US20200129630A1, “METHODS FOR TREATING CANCER” (BicycleRD Limited, priority 2018, published 2020):
# Values joined by “and” are separate entries in the source; they are usually repeats but may differ in a detail not shown here. Equal entries are not always repeated. Where two headings read alike, the source gives them in different places. Numbered stars: 1 amine (or outer) side, 2 acyl side, 3 side chain; on linkers, the order of the positions; unused ones are H or OH. Bridge positions count the residues as written; N and C are the ends. Square brackets hold non-standard residues; d marks the D form. Peptide text beside a SMILES is read from it. * marks the point of attachment. X1 = COc1cc2cc(c1Cl)N(C)C(=O)C[C@H](OC(=O)[C@H](C)N(C)C(=O)CCSSC(C)CCC(=O)*)[C@]1(C)O[C@H]1[C@H](C)[C@@H]1C[C@@](O)(NC(=O)O1)[C@H](OC)/C=C/C=C(\C)C2; 1Nal = N[C@@H](Cc1cccc2ccccc12)C(=O)O; TBMB = c1c(C[*:1])cc(C[*:3])cc1C[*:2]; Tle = CC(C)(C)[C@H](N)C(=O)O; βAla = NCCC(=O)O; Sar = CNCC(=O)O
# Columns and labels:
# [1] = Plasma protein binding, rat; type: in vitro ADME, rats; conditions: read-out: free fraction
# Procedure: Plasma protein binding of BT1718 was also assessed. The mean plasma protein binding of the BT1718 peptide ranged from 87% to 98%, with the free fraction of BT1718 being 13% in human, 2.6% in rats, 7.5% in mice, 3.8% in monkey and 1.5% in dog plasma, the results had no correlation to the plasma and whole blood stability data. […] Plasma protein binding of unconjugated DM1, has previously been reported, with the unbound fraction being 7% in human and monkey and 3% in rat.
# [2] = Clinical pharmacokinetics of BT1718, 1 h intravenous infusion; type: in vivo, patients; conditions: for clearance / half-life / Vd: human, plasma
# From the text: Intact BT1718 and total DM1 (DM1 in BT1718, any peptidyl-DM1 metabolites of BT1718, and other DM1-containing mixed disulfides and free DM1) will be measured in plasma according to agreed standard operating procedures (SOPs) and validated methods in Phase I, dose escalation phase (Stage 1 and 2) and potentially in Phase IIa, expansion phase (Parts A and B), dependent on emerging data.
# The plasma concentration/time data will be analyzed using non-compartmental methods. The PK parameters to be determined for intact BT1718 include Cmax, Tmax, AUC, t1/2, total body clearance (CLT) and Vdss. The PK parameters to be determined for total DM1 include Cmax, Tmax, AUC and t1/2.
# The preliminary clinical pharmacokinetic data for BT1718 following a 1 hour intravenous infusion to patients are shown in Table 13 below.
# [3] = PK samples in EBC-1 xenograft study; conditions: female, BALB/c, mouse, plasma, iv
# [4] = 9.6 mg/m^2, 1 h IV infusion, individual patients
smiles,measurement,setting,value
COc1cc2cc(c1Cl)N(C)C(=O)C[C@H](OC(=O)[C@H](C)N(C)C(=O)CCSSC(C)CCC(=O)NCCC(=O)N(C)CC(=O)N(C)CC(=O)N(C)CC(=O)N(C)CC(=O)N(C)CC(=O)N(C)CC(=O)N(C)CC(=O)N(C)CC(=O)N(C)CC(=O)N(C)CC(=O)N[C@@H](C)C(=O)N[C@H]1CSCc3cc4cc(c3)CSC[C@H](NC(=O)[C@@H](C)NC(=O)[C@H](Cc3cccc5ccccc35)NC(=O)[C@H](CCC(=O)O)NC(=O)[C@H](CC(N)=O)NC(=O)[C@@H](C)NC1=O)C(=O)N[C@@H](CCC(=O)O)C(=O)N[C@@H](CC(=O)O)C(=O)N[C@@H](Cc1ccccc1)C(=O)N[C@@H](Cc1ccc(O)cc1)C(=O)N[C@@H](CC(=O)O)C(=O)N[C@@H](C(C)(C)C)C(=O)N[C@H](C(N)=O)CSC4)[C@]1(C)O[C@H]1[C@H](C)[C@@H]1C[C@@](O)(NC(=O)O1)[C@H](OC)/C=C/C=C(\C)C2 (stereo partly shown) [BT1718] ({X1-βAla}-[Sar][Sar][Sar][Sar][Sar][Sar][Sar][Sar][Sar][Sar]AC[dA]NE[1Nal][dA]CEDFYD[Tle]C-NH2; linker 12-18-25 via TBMB (inferred)),fraction unbound,[1],0.026
same,CLp,[2]; [4],0.264 L/h/kg and 0.612 L/h/kg
same,Vss,[2]; [4],0.18 L/kg
same,t½,[2]; [4],17 min and 14 min
same,clearance,"[2]; intravenous, Data for all patients, read-out: CLp",0.6 L/h/kg
same,half-life,"[2]; intravenous, Data for all patients, read-out: t½",18 min
same,clearance,"[2]; intravenous, Data for cycle 1 only, read-out: CLp",0.72 L/h/kg
same,half-life,"[2]; intravenous, Data for cycle 1 only, read-out: t½",18 min
same,clearance,"[2]; intravenous, patients, read-out: Mean (±SD) plasma clearance (CLp) (converted)",538 mL/min
same,Vd,"[2]; intravenous, patients, read-out: mean (±SD) volume of distribution (Vss)",22.9 L
same,half-life,"[2]; intravenous, patients, read-out: terminal half-life (t½)",12 to 60 min
same,clearance,"[2]; iv, 1.2 mg/m^2, 1.2 mg/m^2, 1 h IV infusion, individual patient, read-out: CLp",0.75 L/h/kg
same,Vd,"[2]; iv, 1.2 mg/m^2, 1.2 mg/m^2, 1 h IV infusion, individual patient, read-out: Vss",0.23 L/kg
same,half-life,"[2]; iv, 1.2 mg/m^2, 1.2 mg/m^2, 1 h IV infusion, individual patient, read-out: t½",6 min
same,clearance,"[2]; iv, 2.4 mg/m^2, 2.4 mg/m^2, 1 h IV infusion, individual patient, read-out: CLp",1.1 L/h/kg
same,Vd,"[2]; iv, 2.4 mg/m^2, 2.4 mg/m^2, 1 h IV infusion, individual patient, read-out: Vss",0.3 L/kg
same,half-life,"[2]; iv, 2.4 mg/m^2, 2.4 mg/m^2, 1 h IV infusion, individual patient, read-out: t½",6 min
same,clearance,"[2]; iv, 4.8 mg/m^2, 4.8 mg/m^2, 1 h IV infusion, individual patient, read-out: CLp",0.798 L/h/kg
same,Vd,"[2]; iv, 4.8 mg/m^2, 4.8 mg/m^2, 1 h IV infusion, individual patient, read-out: Vss",0.19 L/kg
same,half-life,"[2]; iv, 4.8 mg/m^2, 4.8 mg/m^2, 1 h IV infusion, individual patient, read-out: t½",10 min
same,Vd,"[2]; iv, 9.6 mg/m^2, 9.6 mg/m^2, 1 h IV infusion, individual patients, read-out: Vss",0.15 L/kg
same,half-life,"[2]; iv, 9.6 mg/m^2, 9.6 mg/m^2, 1 h IV infusion, individual patients, read-out: t½",16 min
same,AUC vs dose,[2]; over the range 0.6-25 mg/m2,approximately dose proportional
same,Cmax,[3]; 3 mg/kg,1.5 ± 0.9 µM
same,Cmax,[3]; 10 mg/kg,7.6 ± 0.6 µM
